Laboratory results as given in publication PMC12260524, “Identification of a VPS29 isoform with restricted association to Retriever and Retromer accessory proteins through autoinhibition” (Proceedings of the National Academy of Sciences of the …, 2025).

Biological target: T1, GST-tagged VPS29C (Homo sapiens, UniProt Q9UBQ0)
T1 construct: made in house; host or cells: E. coli BL21 (DE3)
Experiment: Isothermal titration calorimetry (ITC) of peptides with GST-VPS29C
Type: binding
Conditions: 25 °C, single-site model
Protocol: All the bacterial constructs were expressed in BL21 (DE3) competent cells using the standard autoinduction method as described previously. Cell cultures were harvested by centrifugation at 6,000 × g for 5 min at 4 °C and the cell pellets were then stored at −80 °C until cell lysis. To obtain individual Retromer subunit including VPS26A, GST-VPS29B, and GST-VPS29C, the frozen cell pellet was resuspended in protein buffer (50 mM Tris-HCl pH 7.5, 200 mM NaCl, 2 mM β-mercaptoethanol) supplemented with 50 μg/mL benzamidine, 100 units of DNase I. In all cases, the resuspended cells were lysed through a Constant System TS-series high pressure cell disruptor. The soluble homogenate cleared by centrifugation was loaded onto either Talon resin (Clontech) for His-tagged VPS26A or Glutathione Sepharose (GE Healthcare) for GST-tagged VPS29B/VPS29C. The fusion-tagged containing proteins eluted from the resin were then further purified using size exclusion chromatography (SEC) on a HiLoad® 16/600 Superdex 200 or Superdex 75 column equilibrated with protein buffer. For Retromer, the soluble homogenate was first loaded onto Talon resin (Clontech) followed by glutathione Sepharose (GE healthcare) to obtain the correct stoichiometry ratio of the Retromer complex. Removal of the GST tag from the constructs was performed using an on-column cleavage approach with PreScission protease. The fusion tag free protein was further purified using SEC on a HiLoad® 16/600 Superdex 200 column as described above. Protein integrity was validated using SDS-PAGE gel and concentration was measured using Nanodrop at OD280.
All microcalorimetry experiments were carried out at 25 °C using a PEAQ ITC (Malvern, UK) in protein buffer. […] In the macrocyclic peptide experiment, the equivalent percentage (v/v) of DMSO was added into the target protein to avoid buffer mismatch. All ITC experiments were performed with a single injection of 0.4 μL followed by a series of 12 injections of 3.2 μL each, spaced 180 s apart, and stirred at 750 rpm. To calculate the heat exchange of interactions, the observed peaks were integrated with the subtraction of heat of dilution from the background. The thermodynamic parameters including Kd, ΔH, ΔG, and −TΔS were obtained by fitting and normalizing the data to a single-site binding model using Malvern software package. The stoichiometry was adjusted initially, and if the value was near 1, N was set to exactly 1.0 for computation. To ensure the data were reproducible, each experiment was run at least twice.

[1] = 300 μM peptide into 10 μM GST-VPS29C

-TΔS [1] | ΔG [1] | ΔH [1] | Kd (300 μM peptide titrated into 10 μM GST-VPS29C, protein buffer (50 mM Tris-HCl pH 7.5, 200 mM NaCl, 2 mM β-mercaptoethanol), each experiment run at least twice) | Substance
4.26 ± 2.04 kcal/mol | -5.26 ± 0.15 kcal/mol | -9.54 ± 2.50 kcal/mol | – | VPS35L 16-38: natural peptide of the amino-terminal region of VPS35L containing a Pro-Leu motif (EFASCRLEAVPLEFGDYHPLKPI)
– | – | – | No binding detected | VPS35L 28-37: natural peptide of the amino-terminal region of VPS35L containing a Pro-Leu motif (EFGDYHPLKP)
